Entries after “also recorded” stand apart in the source; their conditions may differ. Ends that are not written are not given here.
Columns and labels:
murine facialis arteries = test: ACh-induced vasodilation of isolated, pressurized facialis arteries after acute peptide exposure; design: species or system C57BL/6 mice; conditions: 10 μg/mL, 10 min pre-treatment, vs vehicle control
From the text: The B2 peptide was also shortened to 15 aa (AELVLEVPLEHPTLE) with the TAT PTD (RKKRRQRRR) added at the N-terminal as described by Pagano and associates.^6 (Note that the initial A residue is a linker.) This redesign made a new decoy peptide (RKKRRQRRR-AELVLEVPLEHPTLE), which we called TSB2. In designing a control peptide, TSB(Ctr) (RKKRRQRRR-AALVLAVPLAHPRLA), we reasoned that if E were important for binding, then replacing E with A would result in a peptide that would fail to bind to hsp90 or another heatshock protein essential to chaperone-dependent signaling and possibly mitochondrial function and therefore fail to impair vasodilation. To test these ideas, TSB2 and TSB(Ctr) (10 μg/mL) were incubated with separatefacialis arteries from healthy C57BL/6 male mice, whose vasodilation is mediated 100% by eNOS.^9 Ten minutes later, excess peptides were removed by changing the buffer and ACh-dose response curves of the preconstricted and pressurized vessels determined as before.^9

B16 melanoma cells = test: Viability of B16 melanoma cells in culture (LDH release); type: cell-based; conditions: even at 100 μg/mL
[1] = target: T1, heat shock protein 90 (hsp90), endogenous in bovine aortic endothelial cells (BAEC) (bovine, UniProt A0AAA9SQM8); test: peptide at 10 ug/mL in BAEC lysate, eNOS immunoprecipitation, western blot for hsp90
[2] = target: T1, heat shock protein 90 (hsp90), …; test: eNOS immunoprecipitation from treated BAEC cultures, western blot for hsp90 (FIG. 2)

Molecule | percent decrease of hsp90 association with eNOS [1] [%] | also measured
RKKRRQRRR-AALVLAVPLAHPRLA [TSB(Ctr)] | – | effect on ACh-induced vasodilation (in words) (murine facialis arteries): no effect
RKKRRQRRRAELVLEVPLEHPTLE [TSB2, RKKRRQRRR-AELVLEVPLEHPTLE] | – | viability of B16 melanoma cells (LDH release) (B16 melanoma cells): no significant effects; also recorded: no direct effect
LVLEVPLEHPTLEWFAALGL [B3 (311-330)] | ~80 | –
APELFVLPPELVLEVPLEHP [B2 (301-320)] | ~80 | –
LPLLLQAPDEAPELFVLPPE [B1 (291-311)] | ~80 | –
RKKRRQRRRAELVLEVPLEHPTLE [TSB2] | – | hsp90 association with eNOS relative to PEP1-treated or untreated cultures [2]: 0.25 fraction of control level
